The target of the test is T1, CD58 (UniProt P19256 29-215, limits assumed).
T1 construct: also called naturally occurring CD58
T1 sequence (looked up): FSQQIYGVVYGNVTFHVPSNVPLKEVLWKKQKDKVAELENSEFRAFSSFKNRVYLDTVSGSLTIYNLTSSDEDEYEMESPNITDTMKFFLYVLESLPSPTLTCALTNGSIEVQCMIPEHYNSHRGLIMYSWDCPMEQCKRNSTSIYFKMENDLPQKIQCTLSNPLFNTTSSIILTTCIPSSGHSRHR
Put plainly: not described (screen of a CSR mutant panel).

B1: CD2 extracellular domain with D111H mutation ("CD2 ECD (D111H)") (receptor)
chain: KEITNALETWGALGQDINLDIPSFQMSDDIDDIKWEKTSDKKKIAQFRKEKETFKEKDTYKLFKNGTLKIKHLKTDDQDIYKVSIYHTKGKNVLEKIFDLKIQERVSKPKISWTCINTTLTCEVMNGTDPELNLYQDGKHLKLSQRVITHKWTTSLSAKFKCTAGNKVSKESSVEPVSCPEKGLD
notes: also called CSR CD2z-D111H mutant; mutant CSR
On to B1, for which the binding result is “no binding”.

Source of the values: patent publication US20220372105A1 (POSEIDA THERAPEUTICS, published 2022).
